Source: patent US20160348112
pKd: −log10 of the molar value.

Target: Clumping factor A (ClfA) (Staphylococcus aureus NRS384 (USA300)) (UniProt Q2G015)
Test: filter
Conditions: BndU at every n (W); full-length clone also has fixed flanking regions not printed [BndU at 2,4,7,8,14,20,21,27,29,32,33,34,35,36,40]; SB18T, 5 mM MgCl2; full-length aptamer

Chain of Clumping factor A (ClfA) (Staphylococcus aureus NRS384 (USA300)) (Q2G015 40-893): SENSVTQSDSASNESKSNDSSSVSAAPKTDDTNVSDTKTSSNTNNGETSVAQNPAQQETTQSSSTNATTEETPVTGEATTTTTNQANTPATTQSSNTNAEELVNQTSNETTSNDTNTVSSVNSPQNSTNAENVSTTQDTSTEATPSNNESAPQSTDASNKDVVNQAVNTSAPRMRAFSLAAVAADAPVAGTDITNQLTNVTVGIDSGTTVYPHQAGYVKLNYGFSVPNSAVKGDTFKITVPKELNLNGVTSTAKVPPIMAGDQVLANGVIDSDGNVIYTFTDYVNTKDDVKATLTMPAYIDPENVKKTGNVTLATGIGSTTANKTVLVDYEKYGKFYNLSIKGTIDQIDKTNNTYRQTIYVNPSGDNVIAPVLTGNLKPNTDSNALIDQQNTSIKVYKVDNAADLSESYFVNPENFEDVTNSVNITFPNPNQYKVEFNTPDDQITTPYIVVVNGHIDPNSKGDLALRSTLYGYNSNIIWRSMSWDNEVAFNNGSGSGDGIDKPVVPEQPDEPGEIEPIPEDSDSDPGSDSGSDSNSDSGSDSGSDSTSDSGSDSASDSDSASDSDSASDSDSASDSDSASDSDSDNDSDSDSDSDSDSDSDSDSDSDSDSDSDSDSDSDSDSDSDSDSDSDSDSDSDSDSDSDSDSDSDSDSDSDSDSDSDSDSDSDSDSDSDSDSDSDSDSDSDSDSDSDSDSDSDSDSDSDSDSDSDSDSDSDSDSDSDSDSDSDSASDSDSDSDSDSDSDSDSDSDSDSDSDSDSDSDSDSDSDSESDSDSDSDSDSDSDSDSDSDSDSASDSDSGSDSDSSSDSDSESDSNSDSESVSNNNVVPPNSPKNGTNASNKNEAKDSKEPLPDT

ATCTGGTTCAAAGTGGCGATTGGGCATCTGGTTTTTAAGT [4503-73]
pKd: 9.10
